Patent publication US20020115066A1, “Viral therapeutics” (priority 1998, published 2002)
Peptide text beside a SMILES is read from it. * marks the point of attachment. Cbz = O=C(OCc1ccccc1)*

B1: pSFV/GB1-141: SFV construct with epitope-tagged GBV-B core, residues 1-141 of the GBV-B polyprotein (protein)
chain: MPVISTQTSPVPAPRTRKNKQTQASYPVSIKTSVERGQRAKRKVQRDARPRNYKIAGIHDGLQTLAQAALPAHGWGRQDPRHKSRNLGILLDYPLGWIGDVTTHTPLVGPLVAGAVVRPVCQIVRLLEDGVNWATGWFGVH
modifications: left off: small tags and cut ends
B2: pSFV/GB1-398: SFV construct with epitope-tagged GBV-B core, residues 1-398 of the GBV-B polyprotein (protein)
chain: MPVISTQTSPVPAPRTRKNKQTQASYPVSIKTSVERGQRAKRKVQRDARPRNYKIAGIHDGLQTLAQAALPAHGWGRQDPRHKSRNLGILLDYPLGWIGDVTTHTPLVGPLVAGAVVRPVCQIVRLLEDGVNWATGWFGVHLFVVCLLSLACPCSGARVTDPDTNTTILTNCCQRNQVIYCSPSTCLHEPGCVICADECWVPANPYISHPSNWTGTDSFLADHIDFVMGALVTCDALDIGELCGACVLVGDWLVRHWLIHIDLNETGTCYLEVPTGIDPGFLGFIGWMAGKVEAVIFLTKLASQVPYAIATMFSSVHYLAVGALIYYASRGKWYQLLLALMLYIEATSGNPIRVPTGCSIAEFCSPLMIPCPCHSYLSENVSEVICYSPKWTRPVTLE
modifications: left off: small tags and cut ends

Experiments:
proteasome = assay: Western blot of core protein after treatment with proteasome inhibitor MG132; type: cell-based, hamster; settings: cells electroporated with pSFV.1-124, 145-152; MG132 2.5 μM from 4 hours after electroporation, harvested at 16 hours
Procedure: A. Western Blot analysis of extracts prepared from cells which were harvested 16 hours after electroporation following treatment with proteasomal inhibitor MG132. Aliquots of extracts containing the same number of cell equivalents were analyzed with antibody JM122. The samples were from cells electroporated with RNA from the following constructs: lanes 1 and 2, PSFV.1-195; lanes 3 and 4, pSFV.1-124, 145-152; lanes 5 and 6, pSFV.Δ125-144; lanes 7 and 8, pSFV.1-153; lanes 9 and 10, no RNA. Samples in lanes with odd numbers were prepared from cells not treated with MG132. Samples in lanes with even numbers were prepared from cells which had been incubated in the presence of MG132 (final concentration 2.5 μM) from 4 hours after electroporation.
For Western blot analysis, proteins were separated on polyacrylamide gels and transferred to nitrocellulose membrane using standard techniques. The nitrocellulose membrane was blocked in 3% gelatin, 20 mM Tris (pH 7.5), 500 mM NaCl for at least 6 hours at 37° C. prior to incubation with the primary antibody. Incubations with the primary antibody (diluted to 1/500for adipophilin antibody and 1/1000for JM122) were performed in 1% gelatin, 20 mM Tris (pH 7.5), 500 mM NaCl, 0.05% Tween 20 at either room temperature or 37° C. for approximately 3-4 hours. […] Bound antibody was detected by enhanced chemiluminescence.

lipid droplets = assay: Intracellular localization of tagged GBV-B and HCV core proteins (Example 10); type: cell-based, hamster; settings: BHK cells, epitope tag detected with antibody 9220 or JM122, oil red O
From the text: To express portions of the GBV-B polyprotein, relevant regions were amplified by PCR from a construct pGBB (30). pGBB contains the consensus sequence for an infectious molecular clone of GBV-B (30). Primers for PCR amplification were derived from the viral sequences in pGBB and were used in the following pairs to produce DNA fragments that encoded N-terminal regions of the GBV-B polyprotein: residues 1-141, GBV-B primers 1 and 2; residues 1-194, GBV-B primers 1 and 3; residues 1-398, GBV-B primers 1 and 4. Amplified fragments were introduced initially into plasmid pGEM1 and thereafter into pSFV1 by standard cloning techniques. To permit detection of GBV-B core, an epitope tag (32) was introduced into the coding region immediately following amino acid residue 85 (FIG. 7). […] An oligonucleotide encoding the epitope tag (GBV-B5 in Table 1) was inserted between this XbaI site and a TfiI site (position 708 in the native GBV-B nucleotide sequence). The final SFV constructs that contained tagged versions of GBV-B core were termed pSFV/GB1-141, pSFV/GB1-194 and pSFV/GB1-398. […]
Cells on 13 mm coverslips were fixed for 30 min in 4% paraformaldehyde, 0.1% Triton X-100 (prepared in phosphate-buffered saline) at 4° C. […] Samples were analyzed using a Zeiss LSM confocal microscope.

Molecule | increase in the amount of protein detected by Western blot analysis (proteasome) [fold] | intracellular localization relative to lipid droplets (lipid droplets)
CC(C)C[C@@H](C=O)NC(=O)[C@H](CC(C)C)NC(=O)[C@H](CC(C)C)NC(=O)OCc1ccccc1 [MG132] (Cbz-Leu-Leu-Leu-aldehyde) | 4 | 
B1 |  | localization of the protein around lipid droplets
B2 |  | staining around lipid droplets
